Assay results reported in PMC2581425.
Where “and” joins values, the source holds several entries; their conditions need not be identical. Equal values may be shown once.

Tests used:
[1] = biological target: CagY-C2_(C3S/C28S/C41S) (Helicobacter pylori strain Q121B); assay: non-reducing SDS-PAGE; affinity-purified His-tagged protein on 15% SDS-PAGE without reducing agent, beside a reducing gel; multimers held by disulphide linkages
[2] = biological target: CagY-C2 (recombinant N-terminal His-tagged CagY repeat 2 motif A fragment) (Helicobacter pylori strain Q121B); assay: SEC; 26/60 Superdex 200, 20 mM Tris (pH 8.0), 200 mM NaCl, 2 mL/min; calibrated with known standards; peaks analysed by SDS-PAGE (not shown)
[3] = biological target: CagY-C2 (recombinant N-terminal His-tagged CagY repeat 2 motif A fragment) (Helicobacter pylori strain Q121B); assay: non-reducing SDS-PAGE; affinity-purified His-tagged protein on 15% SDS-PAGE without reducing agent, beside a reducing gel; multimers held by disulphide linkages

| Substance | stoichiometry N [1] | stoichiometry N [2] | stoichiometry N [3] |
| --- | --- | --- | --- |
| CagY-C2_(C3S/C28S/C41S) (domain or fragment) | 2 |  |  |
| CagY-C2 (recombinant N-terminal His-tagged CagY repeat 2 motif A fragment) (domain or fragment) |  | 2 | 2 and 3 and 4 |
